We go through 41 sequences from the nanobody polyreactivity screen of Harvey et al. (2022).

The data set can be described thus: yeast display, Sf9 membrane polyspecificity reagent, FACS + sequencing; frameworks hold sequencing errors. In outline:
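Galactose-induced (36–48 hours) yeast carrying a synthetic nanobody display library were exposed to 10% biotinylated, detergent-solubilized Sf9 membrane reagent at 4 °C for 1 hour. FACS followed streptavidin microbead enrichment, using low and high (top ~1%) gates for expression (anti-HA) and reagent binding (streptavidin). Colony PCR, MiSeq 2 × 250 sequencing and CDR-length filtering followed. Labels for polyreactivity reflect the gate of origin.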
With “QVQLVESGGGLVQAGGSLRLSCAASGRIFTYNAMGWYRQAPGKERELVAVITSGGSTYYADSVKGRFTISRDNAKNTVYLQMNSLKPEDTAVYYCAARVWGSSQYYYWGQGTQVTVSS”, the “polyreactivity (PSR sort gate)” value is reported as “low polyreactivity”. On to “QVQLVESGGGLVQAGGSLRLSCAASGRIFTYYAMGWYRQAPGKERELVAAITWSGTGTYYADSVKGRFTISRDNAKNTVYLQMNSLKPEDTAVYYCNRRHALASSYYYWGQGTQVTVSS”, for which the “polyreactivity (PSR sort gate)” value is “low polyreactivity”. Under “QVQLVESGGGLVQAGGSLRLSCAASGRIFTYYAMGWYRQAPGKERELVASITGSGGSTDYADSVKGRFTISRDNAKNTVYLQMNSLKPEDTAVYYCAADHSGVSRYDYWGQGTQVTVSS” stands “low polyreactivity”; under “QVQLVESGGGLVQAGGSLRLSCAASGRIFVANGLGWYRQAPGKERELVAAITWSGDNTYYADSVKGRFTISRDNAKNTVYLQMNSLKPEDTAVYYCATPRSWYFPYGYWGQGTQVTVSS”, “high polyreactivity”; under “QVQLVESGGGLVQAGGSLRLSCAASGRIFVAYTMGWYRQAPGKERELVAAISTNGGRTYYADSVKGRFTISRDNAKNTVYLQMNSLKPEDTAVYYCAAYRGPRADYYWGQGTQVTVSS”, “high polyreactivity”. As for “QVQLVESGGGLVQAGGSLRLSCAASGRIFVDNTMGWYRQAPGKEREFVAVISTSGGRTSYADSVKGRFTISRDNAKNTVYLQMNSLKPEDTAVYYCNALYGRYGWSKNYYWGQGTQVTVSS”, the “polyreactivity (PSR sort gate)” value is on record as “high polyreactivity”. On to “QVQLVESGGGLVQAGGSLRLSCAASGRIFVDYAMGWERQAPGKERELVAAITYGGGSTHYADSVKGRFTISRDNAKNTVYLQMNSLKPEDTAVYYCAADLFYHSYGYEYWGQGTQGTVSS”, for which the “polyreactivity (PSR sort gate)” value is reported as “low polyreactivity”. To “QVQLVESGGGLVQAGGSLRLSCAASGRIFVENAMGWYRQAPRKERELVAAITSRGGSTYYADSVKGRFTISRDNAKNTVYLQMNSLKPEDTAVYYCNAGKYSRFLYDHNYWGQGTQVTVSS” belongs “high polyreactivity”.

For the sequence “QVQLVESGGGLVQAGGSLRLSCAASGRIFVFNAMGWYRQAPGKERELVATIDRGGSTNYADSVKGRFTISRDNAKNTVYLQMNSLKPEDTAVYYCAAGVVGKRSRTGYYWGQGTQVTVSS”, the “polyreactivity (PSR sort gate)” value was “low polyreactivity”. Under “QVQLVESGGGLVQAGGSLRLSCAASGRIFVFYVMGWYRQAPGKERELVAAITRTGGSTYYADSVKGRFTISRDNAKNTVYLQMNSLKPEDTAVYYCATRYTRLRHFDYWGQGTQVTVSS” stands “low polyreactivity”; under “QVQLVESGGGLVQAGGSLRLSCAASGRIFVGNAMGWYRQAPGKEWALVAANSGSGDSTYYADSVKGRFTISRDNAKNTVYLQMISLKPEDTAVYYCNVDYDFVIYYYWYYPGYDYWGQGTQVTVSS”, “low polyreactivity”. To “QVQLVESGGGLVQAGGSLRLSCAASGRIFVGYAMVWYRQAPGKERELVAGISRSGDSTYYADSVKGRFTISRDNAKNTVYLQMNSLKPEDTAVYYCAARIIYWGYYYWGQGTQVTVSS” belongs “high polyreactivity”; to “QVQLVESGGGLVQAGGSLRLSCAASGRIFVHYVMGWYRQAPGKERELVAAISRSGGRTYYADSVKGRFTISRDNAKNTVYLQMNSLKPEDTAVYYCATDASTYKYDYWGQGTQVTVSS”, “high polyreactivity”. Consider “QVQLVESGGGLVQAGGSLRLSCAASGRIFVIYAKGWYRQAPGKERELVAVISSDGSTYYADSVKGRFTISRDNAKNTVYLQMNSLKPEDTAVYYCAADRIGRYRPYIGWVVRSYYWGQGTQVTVSS”, for which the “polyreactivity (PSR sort gate)” value is “low polyreactivity”. To “QVQLVESGGGLVQAGGSLRLSCAASGRIFVIYAMGWYRQAPGKERELVAVINDDGSTNYADSVKGRFTISRDNAKNTVYLQMNSLKPEDSAVYYCNAVYYSYRYGHDYWGQGTQVTVSS” belongs “low polyreactivity”; to “QVQLVESGGGLVQAGGSLRLSCAASGRIFVKNAMGWNRQAPGKESELVAAISASGGSTYYADSVKGRFTISRDNAKNTVDLQMNSLKPEDTAVYYCAARRRAFGSTYNYWGQGTQVTVSS”, “high polyreactivity”. Under “QVQLVESGGGLVQAGGSLRLSCAASGRIFVKNAMGWYIQAPGKERELVAAISASGGSTYYADSVKGRFTISRDYSKNTVYLQMNSLKPEYTAVYYCARVLRRRYLSEFDYWGQGTQVTVSS” stands “high polyreactivity”. On to “QVQLVESGGGLVQAGGSLRLSCAASGRIFVKNAMGWYRQAPGKERELVATISSGGNTNYADSVKGRFTISRDNAKNTVYLQLNSLKPEDTAVYYCAAVWDLGDYELPYDYWGQGTQVTVSS”, for which the “polyreactivity (PSR sort gate)” value is given as “low polyreactivity”.

Turning to “QVQLVESGGGLVQAGGSLRLSCAASGRIFVKNTMGLYRQAPGKERELVAAISWYGGSTYYADSVKGRFTISRDNAMNTVYLQMNSLKPEDTAFYYCAAATWQWPWYDYWGQGTKVTVSS”, the “polyreactivity (PSR sort gate)” value is “high polyreactivity”. To “QVQLVESGGGLVQAGGSLRLSCAASGRIFVKYVIGWYRQAPGKERELVAAISSSGGRTYYADSVKGRFTISRDNAKNTVYLQMNSLKPEDTAVYYCAASFRRIYVSGLGGPFDYWGQGTQVNVSS” belongs “high polyreactivity”; to “QVQLVESGGGLVQAGGSLRLSCAASGRIFVNNAMGWYRQAPGKERELVATITSGGSTYYADSVKGRFTISRDNAKNTVYLQMNSLKPEDSAVYYCAARRWYVHYFAYGYWGQGTQVTVSS”, “low polyreactivity”; to “QVQLVESGGGLVQAGGSLRLSCAASGRIFVPNNMGWYRQAPGKERDLVAAISSGGSTYADSVKGRFTISRDNAKNTFYLQLNSLKPEDTAVYYCAVGKYGTQFTQWVRKYDYWGQGTQVTVSS”, “low polyreactivity”. Take “QVQLVESGGGLVQAGGSLRLSCAASGRIFVQNAMGWYRQAPGKERELVAAISASGGRTSYADSVKGRFTISRDNAKNTVYLQMNSLKPEDTAVYYCAALFRVYPLTKKYGYWGQGTQVTVSS”: the “polyreactivity (PSR sort gate)” value is recorded as “high polyreactivity”.

“QVQLVESGGGLVQAGGSLRLSCAASGRIFVQNAMGWYRQAPGKERELVAAISISGARTYYADSVKGRFTISRDNAKNTVYLQMNSLKPEDTAVYYCNASYRDEDDYWGQGTQVTVSS”: the “polyreactivity (PSR sort gate)” value is on record as “high polyreactivity”. To “QVQLVESGGGLVQAGGSLRLSCAASGRIFVQYAMGWYRQAPGKERELVAAISKSGVRTFYADSVKGRFTISRDNAKNTVYLQMNSLKPEDTAVYYCNKAYRVGRTEFNYWGQGTQVTVSS” belongs “high polyreactivity”; to “QVQLVESGGGLVQAGGSLRLSCAASGRIFVRNAMGWYRQAPGKERELVAAISRSGGSTYYADSVKGRFTISRDNAKNTVYLQMNSLKPEDTAVYYCNKGFNYGGWFKKYGYWGQGTQVTVSS”, “high polyreactivity”. To “QVQLVESGGGLVQAGGSLRLSCAASGRIFVRNAMGWYRQAPGKERELVAAISWRGTSTYYADSVKGRFTISRDNAKNTVYLQMNSLKPEDTAVYYCAKRISGYRGDYWGQGTQVTVSS” belongs “high polyreactivity”. “QVQLVESGGGLVQAGGSLRLSCAASGRIFVRNAMGWYRQAPGKERELVAGISNAGRTNYADSVKGRFTISRDNAKNTVYLQMNSLKPEDTAVYYCAKRPGYDYDYWGQGTQVTVSS”: the “polyreactivity (PSR sort gate)” value is “high polyreactivity”.

Take “QVQLVESGGGLVQAGGSLRLSCAASGRIFVRNAMGWYRQAPGKEREMVAAISASGGSTYYADSVKGRFTISRDNAKNTVYLLMNSLKPEDTAVYYCNAYRAYYDLAYGYWGQGTQVTVSS”: the “polyreactivity (PSR sort gate)” value is on record as “high polyreactivity”. Consider “QVQLVESGGGLVQAGGSLRLSCAASGRIFVRNGMGWYRQAPGKERELVAAISASGGNTYYADSVKGRFTISRDNAKNTVYLQMNSLKPEDTAVYYCATTRRVPGEYWGQGTQVTVSS”, for which the “polyreactivity (PSR sort gate)” value is “high polyreactivity”. Under “QVQLVESGGGLVQAGGSLRLSCAASGRIFVTNTMGWYRQAPGKERELVAAIDNSAGSTYYADSVKGRFTISRDNAKNTVYLQMNSLIPEDTAVYYCAADYPPYYAYGYWGQGTQVTVSS” stands “low polyreactivity”; under “QVQLVESGGGLVQAGGSLRLSCAASGRIFVVNAMGWYRQAPGKERELVAAISSSSDSTYYADSVKGRFTISRDNAKNTVYLQMNSLKPEDTAVYYRAADYHYDGYWIYDYWGLGTQVTVSS”, “high polyreactivity”; under “QVQLVESGGGLVQAGGSLRLSCAASGRIFVVNAMGWYRQAPGKERELVAAITRRGGSTYADSVKGRFTISRDNAKNTVYLQMNSLKPEDTAVYYCNAESYYGIFRYKYDYWGQGTQVTVSS”, “high polyreactivity”.

As for “QVQLVESGGGLVQAGGSLRLSCAASGRIFVVYAMGWYRQAPGTETELVANITISGGRTYYADSVKGRFTISRDNAKNTVYVQMNSLKPEDTAVYYCAATSGALYYGYEYWGQGTQVTVSS”, the “polyreactivity (PSR sort gate)” value is “low polyreactivity”.

For the sequence “QVQLVESGGGLVQAGGSLRLSCAASGRIFVYKAMGSYRQAPGKERELVASITSSGGSTYYADSVKGRFTISRDNAKNTVYLQMNSLKPEDTAVYYCAADVQPDTRSTPEMDYWGQGTQVTVSS”, the “polyreactivity (PSR sort gate)” value is on record as “low polyreactivity”.

Turning to “QVQLVESGGGLVQAGGSLRLSCAASGRIFVYNAMGWYRQAPGKEREFVAAISWDGASTYYADSVKGRFTISRDNAKNTVYLQMNSLKPEDTAVYYCAASYRRKLYNDYWGQGTQVTVSS”, the “polyreactivity (PSR sort gate)” value was “low polyreactivity”. For “QVQLVESGGGLVQAGGSLRLSCAASGRIFVYNAMGWYRQAPGKEREFVASINWSGSSTYADSVKGRFTISRDNAKNTVYLQMNSLKQEDTAVYYCAARRWRYEAYRSQYDYGYWGQGTQVTVSS”, the “polyreactivity (PSR sort gate)” value is given as “low polyreactivity”. To “QVQLVESGGGLVQAGGSLRLSCAASGRIFVYNAMGWYRQAPGKERELVAAISRSGSSTYYADSVKGRFTISRDNAKNTVYLQMNSLKPEDTAVYYCNAVLSRWTQSGKYRYRYFGFEYWGQGTQVTVSS” belongs “high polyreactivity”. Under “QVQLVESGGGLVQAGGSLRLSCAASGRIFVYNAMGWYRQAPGKERELVAAISWSGGSTYYADSVKGRFTISRDNAKNTVYLQMNSLKPEDTAVYYCAAYYSARRGHYRNSYGYDYWGQGTQVTVSS” stands “high polyreactivity”; under “QVQLVESGGGLVQAGGSLRLSCAASGRIFVYNAMGWYRQAPGKERELVAAITYSVDSTYYADSVKGRFTISRDNAKNTVYLQMNSLKPEDTAVYYCAADDFHYVIHAYYSSGVDYWGQGTQVTVSS”, “low polyreactivity”; under “QVQLVESGGGLVQAGGSLRLSCAASGRIFVYNAMGWYRQAPGKERELVASISSTTSTYYADSVKGRFTISRDNAKNTVYLQMNSLKPEDTAVYYCNARYQTRYGRYWYKVRGMDYWGQGTQVTVSS”, “high polyreactivity”.
